The record followed here is publication PMC7278352.

This test has as its target pre-formed paclitaxel-stabilized microtubules (tubulin isolated from porcine brain) (porcine) (UniProt P02550). Kind of test: co-sedimentation; pre-formed paclitaxel-stabilized MTs (100 ug/ml tubulin) incubated 30 min at room temperature with 250 ug/ml protein in General tubulin buffer (80 mM PIPES, 0.5 mM EGTA, 2 mM MgCl2, pH 6.9) with 1 mM GTP and 5% glycerol; spun through a 60% glycerol cushion at 100,000 x g for 40 min; band intensity in pellet and supernatant on SDS-PAGE, 5 repeats.
Sequence of UniProt P02550 (P02550 whole entry, looked up): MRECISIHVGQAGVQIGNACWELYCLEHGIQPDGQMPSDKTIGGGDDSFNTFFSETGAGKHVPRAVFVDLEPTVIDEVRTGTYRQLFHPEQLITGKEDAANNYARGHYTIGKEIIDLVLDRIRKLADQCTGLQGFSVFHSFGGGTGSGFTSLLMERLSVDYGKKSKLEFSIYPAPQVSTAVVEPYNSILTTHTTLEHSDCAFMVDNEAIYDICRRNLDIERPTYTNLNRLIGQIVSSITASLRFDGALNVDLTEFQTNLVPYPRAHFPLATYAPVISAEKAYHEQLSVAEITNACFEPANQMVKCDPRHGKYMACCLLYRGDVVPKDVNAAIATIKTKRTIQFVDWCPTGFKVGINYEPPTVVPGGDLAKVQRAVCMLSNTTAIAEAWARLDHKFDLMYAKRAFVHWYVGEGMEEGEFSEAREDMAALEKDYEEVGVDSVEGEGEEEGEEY

“microtubule-associated protein fraction (MAPF)”: the percent of protein pelleted with MTs worked out at 78%.
